± gives the uncertainty stated by the source.
Test: self-splicing fitness, log relative to wild type (ln ratio); higher = more splicing; Tetrahymena group I intron in knt gene, E. coli kanamycin selection, DiMSum; sequences stand for … in CUCUCU…GGAGGGAAAAGUUAUCAGGCAUGCACCUGGUAGCUAGUCUUUAAACCAAUAGAUUGCAUCGGUUUAAAAGGCAAGACCGUCAAAUUGCGGGAAAGGGGUCAACAGCCGUUCAGUACCAAGUCUCAGGGGAAACUUUGAGAUGGCCUUGCAAAGGGUAUGGUAAUAAGCUGACGGACAUGGUCCUAACCACGCAGCCAAGUCCUAAGUCAACAGAUCUUCUGUUGAUAUGGAUGCAGUUCACAGACUAAAUGUCGGUCGGGGAAGAUGUAUUCUUCUCAUAAGAUAUAGUCGGACCUCUCCUUAAUGGGAGCUAGCGGAUGAAGUGAUGCAACACUGGAGCCGCUGGGAACUAAUUUGUAUGCGAAAGUAUAUUGAUUAGUUUUGGAGUACUCGUGGUCG
Summary of the method: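 Pooled colonies went to amplicon sequencing on an Illumina HiSeq 2500 after six replicate transformations. The plates were LB agar with 100 μg/mL carbenicillin, 50 μM IPTG and 0.2% rhamnose, with or without 25 μg/mL kanamycin, incubated overnight at 37°C or 30°C. The E. coli BL21(DE3) library had all eight P1ex-region intron nucleotides randomised, the intron placed in the knt kanamycin-resistance gene on pET-22b(+). DiMSum fitness is the error-weighted combination of replicate fold changes, kanamycin against none, normalised to wild type.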

| Sequence | self-splicing fitness (ln) (30 °C) | self-splicing fitness (ln) (37 °C) |
| --- | --- | --- |
| CUAUAGCAAUAUUACGUUUA | -3.4 ± 0.36 | -1.74 ± 0.19 |
| CUCAAGCAAUAUUACGAAUC |  | -1.91 ± 0.3 |
| CUCAAGCAAUAUUACGACUA | -2.02 ± 0.31 | -2.64 ± 0.34 |
| CUCAAGCAAUAUUACGAUCG | -1.26 ± 0.1 | -0.0967 ± 0.13 |
| CUCAAGCAAUAUUACGAUGG | -1.28 ± 0.061 | 0.0609 ± 0.08 |
| CUCAAGCAAUAUUACGAUUG | -3.85 ± 0.18 | -2.5 ± 0.17 |
| CUCAAGCAAUAUUACGCAAA | -3.82 ± 0.31 | -2.47 ± 0.25 |
| CUCAAGCAAUAUUACGCAAC | -2.65 ± 0.36 |  |
| CUCAAGCAAUAUUACGCAUG | -4.22 ± 0.36 | -1.65 ± 0.18 |
| CUCAAGCAAUAUUACGCCAU |  | -1.99 ± 0.37 |
| CUCAAGCAAUAUUACGCCCU | -3.13 ± 0.44 | -1.36 ± 0.36 |
| CUCAAGCAAUAUUACGCCUC | -2.98 ± 0.14 | -2.97 ± 0.28 |
| CUCAAGCAAUAUUACGCUGG | -3.19 ± 0.15 | -2.62 ± 0.23 |
| CUCAAGCAAUAUUACGCUUC | -2.35 ± 0.26 | -2.7 ± 0.26 |
| CUCAAGCAAUAUUACGGAAC | -4.26 ± 0.42 | -2.46 ± 0.3 |
| CUCAAGCAAUAUUACGGCUG | -3.41 ± 0.26 | -2.57 ± 0.27 |
| CUCAAGCAAUAUUACGGGGA | -2.01 ± 0.15 | -1.33 ± 0.17 |
| CUCAAGCAAUAUUACGGUCA | -3.19 ± 0.2 | -2.35 ± 0.2 |
| CUCAAGCAAUAUUACGGUCC | -3.02 ± 0.22 | 0.396 ± 0.18 |
| CUCAAGCAAUAUUACGGUCG | -1.96 ± 0.098 | -1.19 ± 0.12 |
| CUCAAGCAAUAUUACGUAAU | -3.29 ± 0.12 | -2.22 ± 0.1 |
| CUCAAGCAAUAUUACGUAUU | -3.74 ± 0.19 | -2.58 ± 0.21 |
| CUCAAGCAAUAUUACGUCUC | -4.33 ± 0.39 | -0.263 ± 0.2 |
| CUCAAGCAAUAUUACGUGUA | -2.47 ± 0.13 | -1.91 ± 0.11 |
| CUCAAGCAAUAUUACGUUUC | -4.05 ± 0.24 | -3.83 ± 0.37 |
| CUCCAGCAAUAUUACGAACU | -2.92 ± 0.33 | -1.12 ± 0.29 |
| CUCCAGCAAUAUUACGAAGA |  | -3.41 ± 0.42 |

| Sequence | self-splicing fitness (ln) (30 °C) | self-splicing fitness (ln) (37 °C) |
| --- | --- | --- |
| CUCCAGCAAUAUUACGAAUG | -1.39 ± 0.083 | -0.438 ± 0.11 |
| CUCCAGCAAUAUUACGAGCG | -2.95 ± 0.16 | -2.56 ± 0.23 |
| CUCCAGCAAUAUUACGAGCU | -4.01 ± 0.28 | -2.44 ± 0.23 |
| CUCCAGCAAUAUUACGAGGU | -4.41 ± 0.31 | -3.07 ± 0.24 |
| CUCCAGCAAUAUUACGAUAA | -3.22 ± 0.16 | -2.41 ± 0.18 |
| CUCCAGCAAUAUUACGAUAG | -1.6 ± 0.079 | -0.825 ± 0.1 |
| CUCCAGCAAUAUUACGAUUG | -1.53 ± 0.078 | -0.899 ± 0.11 |
| CUCCAGCAAUAUUACGCCCG | -2.56 ± 0.17 | -0.904 ± 0.19 |
| CUCCAGCAAUAUUACGCCGG | -3.83 ± 0.26 | -2.98 ± 0.24 |
| CUCCAGCAAUAUUACGCCGU | -3.6 ± 0.3 | -3.11 ± 0.35 |
| CUCCAGCAAUAUUACGCCUA | -2.87 ± 0.2 | -1.94 ± 0.2 |
| CUCCAGCAAUAUUACGCUCG | -3.69 ± 0.27 | -2.36 ± 0.39 |
| CUCCAGCAAUAUUACGCUGC | -3.32 ± 0.15 | -2.07 ± 0.21 |
| CUCCAGCAAUAUUACGGCAC | -3.68 ± 0.23 | -3.27 ± 0.47 |
| CUCCAGCAAUAUUACGGCGA | -2.16 ± 0.22 | -1.6 ± 0.2 |
| CUCCAGCAAUAUUACGGUCG | -0.742 ± 0.054 | -0.679 ± 0.071 |
| CUCCAGCAAUAUUACGUCCG | -2.63 ± 0.11 | -1.73 ± 0.12 |
| CUCCAGCAAUAUUACGUGAC | -3.38 ± 0.15 | -2.98 ± 0.3 |
| CUCCAGCAAUAUUACGUGCC | -3.68 ± 0.33 | -0.249 ± 0.27 |
| CUCGAGCAAUAUUACGAAAU | -3.36 ± 0.42 | -2.38 ± 0.27 |
| CUCGAGCAAUAUUACGAAGU | -3.64 ± 0.43 | -1.84 ± 0.35 |
| CUCGAGCAAUAUUACGACGA | -2.5 ± 0.24 | -1.26 ± 0.29 |
| CUCGAGCAAUAUUACGACUG | -1.28 ± 0.1 | -0.299 ± 0.15 |
| CUCGAGCAAUAUUACGAGCC |  | -1.68 ± 0.2 |
| CUCGAGCAAUAUUACGAGCU | -3.85 ± 0.32 |  |
| CUCGAGCAAUAUUACGAGUA | -2.77 ± 0.24 | -2.75 ± 0.31 |
| CUCGAGCAAUAUUACGAGUC | -3.52 ± 0.32 | -2.53 ± 0.2 |

| Sequence | self-splicing fitness (ln) (30 °C) | self-splicing fitness (ln) (37 °C) |
| --- | --- | --- |
| CUCGAGCAAUAUUACGCAGU | -2.06 ± 0.12 | -2.83 ± 0.25 |
| CUCGAGCAAUAUUACGCCUA |  | -0.858 ± 0.46 |
| CUCGAGCAAUAUUACGCGCG | -2.81 ± 0.27 | -1.48 ± 0.32 |
| CUCGAGCAAUAUUACGCGGC | -3.35 ± 0.47 | -3.16 ± 0.4 |
| CUCGAGCAAUAUUACGCGGU | -4.23 ± 0.46 | -1.97 ± 0.27 |
| CUCGAGCAAUAUUACGCUAC | -0.697 ± 0.2 |  |
| CUCGAGCAAUAUUACGCUGU |  | -2.66 ± 0.44 |
| CUCGAGCAAUAUUACGGACU | -2.35 ± 0.19 | -1.95 ± 0.26 |
| CUCGAGCAAUAUUACGGCGA | -3.88 ± 0.46 | -2.61 ± 0.36 |
| CUCGAGCAAUAUUACGGCUG | -3.82 ± 0.42 | -1.94 ± 0.29 |
| CUCGAGCAAUAUUACGUAAA | -3.8 ± 0.34 |  |
| CUCGAGCAAUAUUACGUAGG | -1.11 ± 0.11 | -0.804 ± 0.15 |
| CUCGAGCAAUAUUACGUAGU | -3.91 ± 0.26 | -2.18 ± 0.21 |
| CUCGAGCAAUAUUACGUGUA | -2.89 ± 0.12 | -3.35 ± 0.22 |
| CUCUAGCAAUAUUACGACCU | -2.94 ± 0.3 |  |
| CUCUAGCAAUAUUACGAGGA | -2.32 ± 0.19 | -1.59 ± 0.17 |
| CUCUAGCAAUAUUACGAGUG | -1.62 ± 0.14 | -1.09 ± 0.15 |
| CUCUAGCAAUAUUACGCAGG | -3.35 ± 0.26 | -3.04 ± 0.47 |
| CUCUAGCAAUAUUACGCAUC |  | -2.64 ± 0.36 |
| CUCUAGCAAUAUUACGCCGG | -2.98 ± 0.31 | -1.92 ± 0.45 |
| CUCUAGCAAUAUUACGCGGU | -3.25 ± 0.26 | -2.59 ± 0.29 |
| CUCUAGCAAUAUUACGCGUA | -4.1 ± 0.27 | -3.32 ± 0.24 |
| CUCUAGCAAUAUUACGCGUG | -3.84 ± 0.22 | -3.01 ± 0.19 |
| CUCUAGCAAUAUUACGCUAA | -2.65 ± 0.35 | -2.26 ± 0.4 |
| CUCUAGCAAUAUUACGCUCG | -3.05 ± 0.25 | -1.68 ± 0.23 |
| CUCUAGCAAUAUUACGGAUA | -3.57 ± 0.24 | -2.71 ± 0.22 |

From the supplement of paper PMC7877785
